To fix the notation:
B1: TCN-540 (5060_F05) (antibody, V domains shown)
VH: QVQLVQSGGGVVQPGRSLRLSCAASGFTFSSYAMHWVRQAPGKGLEWVAIISYDGNDQYYTDSVKGRFTISRDSSKVYLQMHRLRPEDTAVYYCAKEFETSGYFHGSFDYWGQGILVTVSS
VL: QSALTQPASVSGSPGQSITISCTGTSSDVGGYNYVSWYQQHPGKAPKLLIYEVTNWPSGVSNRFSGSKSGNTASLTISGLQAEDEADYYCSSYAGSSTWVFGGGTRVTVL
B2: TCN-546 (5089_L08) (antibody, V domains shown)
VH: QVQLQQWGAGLLKPSETLSLTCGVYGGSLSDYYWSWIRQPPGKGLEWIGEINHSGGTNYNPSLKRRVTISVDTSKKQFSLKMNSVTAADTAVYYCARGTDPDTEVYCRAGNCAAFDFWGQGTLVTVSS
VL: EIVLTQSPGTLSLSPGERATLSCRASHFVIGRAVAWYQQKPGQAPRLLIYGASSRATGIPDRFSGSGSGTDFTLTISRLETEDFAVFYCQHYGSSPRYAFGQGTKLEIK
B3: TCN-542 (5079_A16) (antibody, V domains shown)
VH: QVQLQESGPGLVKPSQTLSLTCTVSGGSISSGNYYWNWVRQHPGKGLEWIGYIYYRGSTFYNPSLKSRVTISIDTSKNQFSLRLSSVTAADTAVYYCAKDTRSSLDNYQYGMDVWGQGTTVTVSS
VL: QTVVTQEPSLTVSPGGTVTLTCASSTGAVTSSYFPNWFQQKPGQAPRPLIYSTTIRHSWTPARFSGSLLGGKAALTLSGVQPEDEADYYCLLYSGGDPVAFGGGTKLTVL
B4: TCN-553 (5261_C18) (antibody, V domains shown)
VH: QVQVVQSGTEVKKPGSSVKVSCQTSGGRFMSYAITWVRQAPGQGLEWMGGIVPVFGTANYAQKFQGRVTITTDDSTRTAYMELSSLRSEDTAVYYCGFRYGSGYGFDSWGQGTLVTVSS
VL: EIVLTQSPGTLSLSPGERATLSCRASQSVSSSYLAWYQKKPGQAPRLLIYGASTRATGIPDRFTGSGSGTDFTLSISRLEPEDFAVYYCQHFGTSVFTFGGGTKVEIK
B5: TCN-550 (5096_F06) (antibody, V domains shown)
VH: QVQLQESGPGLVKPSETLSLTCTVSGASINSHYWSWIRQPPGKGLEWIGYVYYSGSTTYNPSLKSRVTLSVDTSKNQFSLNLSSVTAADTAFYYCARHPYDVLTGSGDWFDPWGQGTLVTVSS
VL: SYVLTQAPSVSVAPGQTARITCGGNAIGSKKVHWYQHKAGQAPVLVVYDDTDRPSGIPERFSGSNSWSTATLTINRVEAGDEADYYCQVWDFTIDHVVFGGGTKLTVL
B6: TCN-552 (5249_I23) (antibody, V domains shown)
VH: QVQVVQSGAEVKKPGSSVRVSCQASGGTFMNYAIIWVRRAPGQGLEWMGGIIPVFPTPNYAQMFQGRVTISTDESRSTSFLELTNLRYEDTAVYYCARRIYHGGNSGFDFWGQGTLVTVSS
VL: EIVLTQSPATLSLSPGERATLSCRASQSVGNYLAWYQQKPGQAPRLLIYDSSNRAPGIPARFSGSGSGTDFTLTISSLAPEDFAVYYCQQRSKWPPMYSFGHGTKLEIK
B7: TCN-538 (3206_O17) (antibody, V domains shown)
VH: QITLKESGPTLVKPTQTLTLTCVFSGFSLSITGVRVGWIRQPPGKALEWLALISWDDEKHYSPSLQSRLTITKDTSKNQVVLTMTNLDPVDTATYYCARSTDRGHVLRYFGWMLPGDAFDVWGQGTMVTVSS
VL: DIVMTQSPDFLPVSLGERATINCKSSQRVLYSSNNKNYLAWYQLKPGQPPKLIIYWASTRESGVPDRFSGSGSGTEFTLTISSLQAEDVAVYYCQQYYSRPYTFGQGTKLEIK
B8: TCN-545 (5082_I15) (antibody, V domains shown)
VH: QVQLQQWGAGLLKPSETLSLSCAVFGGSFSDYYWTWIRQPPGKGLEWIGEIKHSGRTNYNPSLESRVTISVDTSKNQFSLKLSSVTAADTAIYYCARGTDPDTEGYCRSGSCSAFDFWGQGTLVTVSS
VL: EIVLTQSPGTLSLSPGERATLSCRASHFVNYRSLAWYQQTPGQVPRLLIYGASTRATGIPDRFSGSGSGTDFTLTISRLEPEDFAVYFCQQYGGSPRYTFGQGTRLEIK
B9: TCN-537 (3194_D21) (antibody, V domains shown)
VH: QVQLQQWGSGLLKPSETLSLTCAVYGGSFRDDYWTWIRQPPGKGLEWIGEINHSGRTNYNPSLKSRVTISVDTSLKQFSLKVISVTAADTAVYYCARGTSHVSRYFDWLPPTNWFDPWGQGTQVTVSS
VL: DIVLTQSPGTLSLSPGERATLSCRASQSVSSSYLAWYQQKPGQAPRLVMYGAATRATGIPDRFSGSGSGPDFTLTISRLEPEDFAMYYCQQYGNSPITFGQGTRLEIK
B10: TCN-555 (5246_L16) (antibody, V domains shown)
VH: QVQLVQSGAEVKRPGSSVKVSCTASGGIFRKNAISWVRQAPGQGLEWMGGIIAVFNTANYAQKFQNRVKITADESGNTAYMELSSLTSDDTAVYYCASHPKYFYGSGSYPDFWGQGTLVTVSS
VL: QSALTQPRSVSGSPGQSITISCTGGSSDIGASNSVSWYQQHPGKAPKLVIFDVTERPSGVPHRFSGSKSGNTASLTVSGLQPDDEADYFCCAYGGKYLVVFGGGTKVTVL
B11: TCN-543 (5081_G23) (antibody, V domains shown)
VH: QVHLVQSGAEVRKPGDSVKVSCKTSGYTFSTYPVAWVRQVPGQGLEWMGWISTYNGNTNFAQNFQGRVTLTTDTTTNTAYMEVRSLKFDDTAVYYCARVEGSYRDFWNNQNRFDPWGQGTLVTVSS
VL: SYVLTQPPSVSVAPGQTARISCGGSNIGGKSVHWYQQKPGQAPVLVVYDDSGRPSGIPERFSGSNSGDTATLTISRVEAGDEADYFCQVWDNFGGVFGTGTKVTVL
B12: TCN-557 (5081_A04) (antibody, V domains shown)
VH: QVQLVQSGAEVKKPGASVKVSCKASGHTFTGYYIHWVRQAPGQGLEWMGWINPDSGATSSAQNFQGRVTMTGDTSSSTAYMELSRLSFDDTAVYYCARVLFTSPFDFWGEGTLVTVSS
VL: QAVVTQEPSLAVSPGGTVTLTCGSSTGAVTRGHYPYWFQQKPGQAPRALIYDSAGNRHSWTPARFSGSLLGGKAALTLSGAQPEDEAEYYCLLSYSGVWVFGGGTKLTVL
B13: TCN-535 (5246_P19) (antibody, V domains shown)
VH: QVQLVQSGSEVKKPGTSVKVSCTASGSVFTNYGISWVRQAPGQGLEWMGGIIPLFGAAKYAQKFQGRVTITADESTKTVYMELSRLTSKDTAIYFCAKAPRVYEYYFDQWGQGTPVTVSS
VL: EIVLTQSPGTLSLSPGERATLSCRASQSVSSSQLAWYQQKPGQAPRLIIYGASTRATGIPDRFSGSGSGTDFTLTIGRLEPEDFAVFFCQQYSTSPPTFGQGTKVDFK
B14: TCN-521 (3280_D18) (antibody, V domains shown)
VH: EVQLVQSGGGLVQPGGSLRLACVVSGFTVTSNYITWVRQAPGKGLEWVSVIYSHGRAYYSASVNGRFTISRHTSKNTVYLEMNSLRPEDTAVYYCAGGGLVGGYDEYFFDYWGQGTLATVSS
VL: ETVLTQSPGTLSLTPGERATLSCRVGQSVSGSHLAWYQQKPGQAPRLLIYGASSRATGIPDRFGGSVSGTDFTLTISRLEPEDSAVYYCQQYGDSRYTFGQGTKLEIK
B15: TCN-530 (5248_H10a) (antibody, V domains shown)
VH: QVQLVQSGAEVRKPGSSVKVSCKASGGPFMSYAIGWVRQAPGQGLEWMGGINPVFGRPHYAQKFQGRVTIATDDSTKTSYMELSSLTSEDTGMYYCASRYSRSSPGTFESWGQGTLVTVSS
VL: EIVMTQFPATLSVSPGERVTLSCRASQSVSNNLAWYQQKPGQPPRLLIYDASTRATGVPAKFSGTGSGTEFTLSISSLQSEDFAVYYCQQYHNWPPSYSFGLGTKLEIK
B16: TCN-534 (5249_B02) (antibody, V domains shown)
VH: QVQLVQSGAEVKKPGSSVKVSCRESGGTFNGYTITWVRQAPGQGLEWMGGIIPMMGTVNYAQKLQGRVTITTDYFTKTAYMDLNNLRSEDTAMYYCVKIRYTGQQLLWGQGTLVTVSS
VL: DIQMTQSPSTLSASIGDRVTITCRASQSIASWLAWYQQKPGKAPKLLIYEAVNLESGVPSRFSGSGSGTDFTLTISSLQPDDFATYFCQHYGTISQTFGGGTKVEIK
B17: TCN-563 (5237_B21) (antibody, V domains shown)
VH: B10 VH with V5A, N66G, T87R
VL: B10 VL with I18V, G25S, I29V, F51Y, D83E
B18: TCN-523 (5248_A17) (antibody, V domains shown)
VH: QVQLVQSGAEVKKPGSSVKVSCKASGGSFSNYAFSWVRQAPGQGLEWMGGTIPLLGTTNYAQKFQGRVTISADQFTSTAYMELGSLRSEDTAVYYCTRRKMTTAFDSWGQGTLVTVSS
VL: QPVLTQPPSASASLGASVTLTCTLSSAYSNYKVDWYQQRPGKGPRFVMRVGTGGIVGSKGDGIPDRFSVLGSGLNRYLTIKNIQEEDESDYHCGADHGSGSNFVSPYVFGGGTKLTVL
B19: TCN-551 (5243_D01) (antibody, V domains shown)
VH: EVQLVQSGSEVKKPGESLKISCKGSGYSFSNYWIGWVRHMPGKGLEWMGIIYPGDSDTRYSPSFQGQVTMSADKSSSTVYLQWSSLKASDTAIYYCARRGGHSFGYGSGGDTHSEFDSWGQGTLVTVSS
VL: QSVLTQSPSVSAAPGQKVTISCSGSDSNIGDYFVCWYQHLPGKPPQLLIYENNKRPSGIPDRFSGSKSGTSATLGITGIQTGDEADYYCATWDGSLSAWVFGGGTKLTVL
B20: TCN-533 (5256_A17) (antibody, V domains shown)
VH: QVQLVQSGADVKKPGSSVTVSCKASGGSFSNYGINWVRQAPGQGLEWMGGIIPLINAPNYAPKFQGRVTITADMFSNIVSLQLTSLRTDDTAVYYCARRKMTTAIDYWGQGTLVTVSS
VL: QPVLSQPPSASASLGASVTLTCTLSSGFDNYQVAWYQQRPGKGPRFVMRVGNGGNVASKGDGIPDRFSVSGSGLNRYLTIKNIQEDDESDYYCGADHGSGNNFVSPYVFGGGTKLTVL

Where a chain is given by its changes, count along the chain named.

The first assay concerns the target recombinant soluble homotrimeric HA, A/common magpie/Hong Kong/5052/07 (H5N1) (influenza A virus A/common magpie/Hong Kong/5052/2007 (H5N1)). As to the kind of experiment: microarray, trimeric HA, transfection supernatant. The note with it: remark: other sources report otherwise.
As to B1, the Trimeric HA Binding RLU worked out at 1800 RLU.
Regarding B2, the Trimeric HA Binding RLU stood at 1920 RLU.
As for B3, the Trimeric HA Binding RLU turned out to be 1670 RLU.
Regarding B4, the Trimeric HA Binding RLU came out at 39200 RLU.
In the case of B5, the Trimeric HA Binding RLU is 993 RLU.
On the same count and under the same terms, the value for B6 was 34600 RLU; that for B7 was 3140 RLU; that for B8 was 1390 RLU.
As to B9, the Trimeric HA Binding RLU was 2070 RLU.
B10: the Trimeric HA Binding RLU is 33600 RLU.
B11: the Trimeric HA Binding RLU is 1070 RLU.
Turning to B12, the Trimeric HA Binding RLU was determined as 54900 RLU.
In the case of B13, the Trimeric HA Binding RLU was found to be 477 RLU.

The next assay concerns the target recombinant soluble homotrimeric HA of A/common magpie/Hong Kong/5052/07 (H5N1) (Influenza A virus A/common magpie/Hong Kong/5052/2007 (H5N1)). Nature of the assay: HA microarray, BCC supernatant. Conditions: remark: other sources report otherwise.
As to B1, the Trimeric HA Binding RLU worked out at 113 RLU.
On the same count and under the same terms, the value for B14 was 13500 RLU.
Still for that read-out and setting: the value for B15 was 42500 RLU.
Consider B16, for which the Trimeric HA Binding RLU came to 32500 RLU.
On to B4, for which the Trimeric HA Binding RLU turned out to be 26000 RLU.
On the same count and under the same terms, the value for B6 was 42200 RLU; that for B7 was 18700 RLU.
As to B9, the Trimeric HA Binding RLU amounted to 18700 RLU.
On to B10, for which the Trimeric HA Binding RLU stood at 16100 RLU.
As to B17, the Trimeric HA Binding RLU worked out at 27500 RLU.
For the molecule B18, the Trimeric HA Binding RLU came out at 45800 RLU.
For the molecule B19, the Trimeric HA Binding RLU came out at 45700 RLU.
Turning to B20, the Trimeric HA Binding RLU turned out to be 44500 RLU.
Regarding B13, the Trimeric HA Binding RLU came to 45900 RLU.

Source of the values: US20150104459A1.
